{
  "source": "patent US20040214331A1",
  "key": {"[1]": {"target": "synthetic HPV16 virus-like particles (L1 and L2) purified from CV-1 cells infected with pLC201VV (human papillomavirus type 16) (UniProt P03101)", "sequence (P03101 whole entry, chain 1 of 2)": "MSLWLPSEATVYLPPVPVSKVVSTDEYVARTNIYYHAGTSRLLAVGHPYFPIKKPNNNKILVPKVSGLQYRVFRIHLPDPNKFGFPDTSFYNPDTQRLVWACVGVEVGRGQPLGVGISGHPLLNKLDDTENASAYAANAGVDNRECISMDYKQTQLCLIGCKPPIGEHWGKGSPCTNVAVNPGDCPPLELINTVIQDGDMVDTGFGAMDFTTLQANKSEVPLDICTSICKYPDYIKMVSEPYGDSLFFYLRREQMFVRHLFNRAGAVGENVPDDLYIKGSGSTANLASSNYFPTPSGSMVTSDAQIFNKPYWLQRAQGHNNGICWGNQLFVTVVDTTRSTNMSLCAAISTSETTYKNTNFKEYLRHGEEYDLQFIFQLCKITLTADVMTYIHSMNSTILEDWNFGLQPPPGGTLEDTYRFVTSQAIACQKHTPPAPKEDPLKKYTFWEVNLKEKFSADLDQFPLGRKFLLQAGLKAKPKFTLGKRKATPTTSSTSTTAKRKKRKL", "sequence (P03107 whole entry, chain 2 of 2, further chain)": "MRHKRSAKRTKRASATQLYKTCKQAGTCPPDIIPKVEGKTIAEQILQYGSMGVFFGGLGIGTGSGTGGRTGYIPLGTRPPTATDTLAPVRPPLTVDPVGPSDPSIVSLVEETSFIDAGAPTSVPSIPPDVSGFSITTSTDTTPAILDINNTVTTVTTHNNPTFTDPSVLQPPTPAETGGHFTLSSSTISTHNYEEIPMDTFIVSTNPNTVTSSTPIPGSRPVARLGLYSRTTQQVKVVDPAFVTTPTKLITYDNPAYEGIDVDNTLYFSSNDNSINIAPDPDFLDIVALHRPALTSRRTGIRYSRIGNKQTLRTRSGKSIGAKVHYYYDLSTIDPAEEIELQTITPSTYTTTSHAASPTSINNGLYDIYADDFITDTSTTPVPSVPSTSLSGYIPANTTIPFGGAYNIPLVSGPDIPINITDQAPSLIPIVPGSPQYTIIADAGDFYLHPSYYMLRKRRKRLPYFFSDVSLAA", "assay": "ELISA, denatured particles coated in carbonate buffer pH 9.6"}, "[2]": {"target": "synthetic HPV16 virus-like particles (L1 and L2) purified from CV-1 cells infected with pLC201VV (human papillomavirus type 16) (UniProt P03101)", "assay": "ELISA, native VLPs coated in PBS pH 7.5"}},
  "data": [
    {"substance": "anti-HPV16 L1 monoclonal antibody Camvir 1", "values": [
      {"measurement": "OD", "setting": "[1]", "result": 0.107, "unit": "OD"},
      {"measurement": "OD", "setting": "[2]", "result": 0.064, "unit": "OD"}
    ]}
  ]
}
